The results in this text go back to patent US9708383 (Novo Nordisk, dated 2017).

*1 amine or outer side, *2 acyl side, *3 side chain or, on linkers, in order; H or OH if unused. Where no end group is shown, it is not given here. Side-chain parts run from the residue outwards. [ ]: non-standard residue; d: D form. The star is where a group is joined. γGlu = O=C(O)[C@H](CCC(=O)[*:2])N[*:1]; Hexanoyl(6-Ph) = O=C(CCCCCc1ccccc1)*; C12 diacid = O=C(O)CCCCCCCCCCC(=O)*; 13‑carboxytridecanoyl = C14 diacid; AEEA = NCCOCCOCC(=O)O; Aib = CC(C)(N)C(=O)O; Ahx = NCCCCCC(=O)O Some results are limits rather than exact numbers.

The first experiment concerns the target T1, human GLP-1 receptor (human, UniProt P43220 24-463).
T1 construct: whole, on cells; Used as purified membranes of the transfected hamster cells, not whole cells; also called hGLP-1
Description: SPA, 2.0% vs 0.005% HSA. Here is the method:
(§1) A shift in the binding affinity, $IC50$, is an indication that the derivative in question binds to albumin, and thereby a prediction of a potential protracted pharmacokinetic profile of the derivative in question in animal models.
(§2) 25 ul (microliter) of test compounds are added to Optiplate. HSA ("high albumin" experiment containing 2% HSA), or buffer ("low albumin" experiment containing 0.005% HSA), was added (50 ul). 5-10 µg protein/sample was added (50 ul) corresponding to 0.1-0.2 mg protein/ml (to be preferably optimised for each membrane preparation). SPA-particles (Wheatgerm agglutinin SPA beads, Perkin Elmer, #RPNQ0001) were added in an amount of 0.5 mg/well (50 ul). […] The plates were sealed with PlateSealer and incubated for 120 minutes at 30° C. while shaking. The plates were centrifuged (1500 rpm, 10 min) and counted in Topcounter.
For the molecule H[Aib]EGTFTSDVSK([AEEA-AEEA-γGlu-13‑carboxytridecanoyl])YLEEQAVREFIAK([AEEA-AEEA-γGlu-13‑carboxytridecanoyl])LVRGRG [GLP-1 derivative of Example 74: [Aib8,Lys18,Glu22,Val25,Arg26,Lys31,Arg34]-GLP-1-(7-37)-peptide], the “ratio IC50 high HSA/IC50 low HSA” value was > 1.
For H[Aib]EGTFTSDVSKYLEGQAAVKFIAWLVRGRG (not fully specified (residues 12, 21), also called Chem. 87) [GLP-1 derivative of Example 68: [Aib8,Lys18,Val26,Lys27,Arg34]-GLP-1-(7-37)-peptide], the “ratio IC50 high HSA/IC50 low HSA” value was > 1.
The same measure, in the same setting: the same measure for HAEGTFTSDVSK([γGlu-AEEA-AEEA-γGlu-13‑carboxytridecanoyl])YLEEQAVREFIAK([γGlu-AEEA-AEEA-γGlu-13‑carboxytridecanoyl])LVRGRG [GLP-1 derivative of Example 111: [Lys18,Glu22,Val25,Arg26,Lys31,Arg34]-GLP-1-(7-37)-peptide]: > 1.
Still for that read-out and setting: the result for HAEGTFTSDVSK([AEEA-AEEA-γGlu-2‑(4-(4-fluorophenoxy)phenyl)acetyl])YLEK([AEEA-AEEA-γGlu-2‑(4-(4-fluorophenoxy)phenyl)acetyl])QAAREFIAWLVQGRG [GLP-1 derivative of Example 120: [Lys18,Lys22,Arg26,Gln34]-GLP-1-(7-37)-peptide] reads > 1.
Same read-out and setting: the result for HAEGTFTSDVSK([AEEA-AEEA-γGlu-13‑carboxytridecanoyl])YLEEQAVREFIAK([AEEA-AEEA-γGlu-13‑carboxytridecanoyl])LVRGRG-NH2 [GLP-1 derivative of Example 133: [Lys18,Glu22,Val25,Arg26,Lys31,Arg34]-GLP-1-(7-37)-peptide amide] reads > 1.
For HAEGTFTSDVSK([AEEA-AEEA-γGlu-13‑carboxytridecanoyl])YLEEQAAHK([AEEA-AEEA-γGlu-13‑carboxytridecanoyl])FIAHLVQGRG [GLP-1 derivative of Example 119: [Lys18,Glu22,His26,Lys27,His31,Gln34]-GLP-1-(7-37)-peptide], the “ratio IC50 high HSA/IC50 low HSA” value was > 1.
Same read-out and setting: the same measure for HAEGTFTSDVSK([AEEA-AEEA-γGlu-γGlu-13‑carboxytridecanoyl])YLEK([AEEA-AEEA-γGlu-γGlu-13‑carboxytridecanoyl])QAAREFIAWLVQGRG [GLP-1 derivative of Example 126: [Lys18,Lys22,Arg26,Gln34]-GLP-1-(7-37)-peptide]: > 1; for HAEGTFTSDVSK([AEEA-AEEA-γGlu-13‑carboxytridecanoyl])YLEEQAVRK([AEEA-AEEA-γGlu-13‑carboxytridecanoyl])FIAHLVQGRG [GLP-1 derivative of Example 118: [Lys18,Glu22,Val25,Arg26,Lys27,His31,Gln34]-GLP-1-(7-37)-peptide]: > 1.
On the same count and under the same terms, the same measure for HAEGTFTSDVSK([AEEA-AEEA-γGlu-C12 diacid])YLEEQAVREFIAK([AEEA-AEEA-γGlu-C12 diacid])LVRGRG [GLP-1 derivative of Example 124: [Lys18,Glu22,Val25,Arg26,Lys31,Arg34]-GLP-1-(7-37)-peptide]: > 1; for HAEGTFTSDVSK([AEEA-AEEA-γGlu-Ahx-γGlu-Hexanoyl(6-Ph)])YLEGQAAK([AEEA-AEEA-γGlu-Ahx-γGlu-Hexanoyl(6-Ph)])EFIAWLVRGRG [GLP-1 derivative of Example 129: [Lys18,Arg34]-GLP-1-(7-37)-peptide]: > 1.
HAEGTFTSDVSK([AEEA-AEEA-γGlu-2‑(2-(trifluoromethyl)phenyl)acetyl])YLEK([AEEA-AEEA-γGlu-2‑(2-(trifluoromethyl)phenyl)acetyl])QAAREFIAWLVQGRG [GLP-1 derivative of Example 125: [Lys18,Lys22,Arg26,Gln34]-GLP-1-(7-37)-peptide]: the “ratio IC50 high HSA/IC50 low HSA” value is > 1.

The target in another experiment is T1, human GLP-1 receptor. Description: SPA, displacement of 125I-GLP-1(7-36)NH2, 0.005% HSA. Here is the method: as §1, §2
In general terms: Loss of bound radioactivity is the signal in a displacement assay; it reports binding, not function.
As a reminder, the IC50 is the concentration needed to halve the response being measured. Consider H[Aib]EGTFTSDVSK([AEEA-AEEA-γGlu-13‑carboxytridecanoyl])YLEEQAVREFIAK([AEEA-AEEA-γGlu-13‑carboxytridecanoyl])LVRGRG [GLP-1 derivative of Example 74: [Aib8,Lys18,Glu22,Val25,Arg26,Lys31,Arg34]-GLP-1-(7-37)-peptide], for which the IC50 is < 1000 nM.
Same read-out and setting: the result for H[Aib]EGTFTSDVSKYLEGQAAVKFIAWLVRGRG (not fully specified (residues 12, 21), also called Chem. 87) [GLP-1 derivative of Example 68: [Aib8,Lys18,Val26,Lys27,Arg34]-GLP-1-(7-37)-peptide] reads < 1000 nM; that for HAEGTFTSDVSK([γGlu-AEEA-AEEA-γGlu-13‑carboxytridecanoyl])YLEEQAVREFIAK([γGlu-AEEA-AEEA-γGlu-13‑carboxytridecanoyl])LVRGRG [GLP-1 derivative of Example 111: [Lys18,Glu22,Val25,Arg26,Lys31,Arg34]-GLP-1-(7-37)-peptide], < 1000 nM.
Same read-out and setting: the same measure for HAEGTFTSDVSK([AEEA-AEEA-γGlu-2‑(4-(4-fluorophenoxy)phenyl)acetyl])YLEK([AEEA-AEEA-γGlu-2‑(4-(4-fluorophenoxy)phenyl)acetyl])QAAREFIAWLVQGRG [GLP-1 derivative of Example 120: [Lys18,Lys22,Arg26,Gln34]-GLP-1-(7-37)-peptide]: < 1000 nM; for HAEGTFTSDVSK([AEEA-AEEA-γGlu-13‑carboxytridecanoyl])YLEEQAVREFIAK([AEEA-AEEA-γGlu-13‑carboxytridecanoyl])LVRGRG-NH2 [GLP-1 derivative of Example 133: [Lys18,Glu22,Val25,Arg26,Lys31,Arg34]-GLP-1-(7-37)-peptide amide]: < 1000 nM; for HAEGTFTSDVSK([AEEA-AEEA-γGlu-13‑carboxytridecanoyl])YLEEQAAHK([AEEA-AEEA-γGlu-13‑carboxytridecanoyl])FIAHLVQGRG [GLP-1 derivative of Example 119: [Lys18,Glu22,His26,Lys27,His31,Gln34]-GLP-1-(7-37)-peptide]: < 1000 nM.
On the same count and under the same terms, the result for HAEGTFTSDVSK([AEEA-AEEA-γGlu-γGlu-13‑carboxytridecanoyl])YLEK([AEEA-AEEA-γGlu-γGlu-13‑carboxytridecanoyl])QAAREFIAWLVQGRG [GLP-1 derivative of Example 126: [Lys18,Lys22,Arg26,Gln34]-GLP-1-(7-37)-peptide] reads < 1000 nM.
In the case of HAEGTFTSDVSK([AEEA-AEEA-γGlu-13‑carboxytridecanoyl])YLEEQAVRK([AEEA-AEEA-γGlu-13‑carboxytridecanoyl])FIAHLVQGRG [GLP-1 derivative of Example 118: [Lys18,Glu22,Val25,Arg26,Lys27,His31,Gln34]-GLP-1-(7-37)-peptide], the IC50 is < 1000 nM.
Same read-out and setting: the result for HAEGTFTSDVSK([AEEA-AEEA-γGlu-C12 diacid])YLEEQAVREFIAK([AEEA-AEEA-γGlu-C12 diacid])LVRGRG [GLP-1 derivative of Example 124: [Lys18,Glu22,Val25,Arg26,Lys31,Arg34]-GLP-1-(7-37)-peptide] reads < 1000 nM; that for HAEGTFTSDVSK([AEEA-AEEA-γGlu-Ahx-γGlu-Hexanoyl(6-Ph)])YLEGQAAK([AEEA-AEEA-γGlu-Ahx-γGlu-Hexanoyl(6-Ph)])EFIAWLVRGRG [GLP-1 derivative of Example 129: [Lys18,Arg34]-GLP-1-(7-37)-peptide], < 1000 nM; that for HAEGTFTSDVSK([AEEA-AEEA-γGlu-2‑(2-(trifluoromethyl)phenyl)acetyl])YLEK([AEEA-AEEA-γGlu-2‑(2-(trifluoromethyl)phenyl)acetyl])QAAREFIAWLVQGRG [GLP-1 derivative of Example 125: [Lys18,Lys22,Arg26,Gln34]-GLP-1-(7-37)-peptide], < 1000 nM.
